Where a chain is given by its changes, count along the chain named. Names may count otherwise. Values belong to the binder of their own block, whether it stands above or below them.
Target: Avi-tagged HSP90β (full-length human HSP90β, residues 1–724) (human) (UniProt P08238)
Sequence (P08238 whole entry, the tested form may be a part): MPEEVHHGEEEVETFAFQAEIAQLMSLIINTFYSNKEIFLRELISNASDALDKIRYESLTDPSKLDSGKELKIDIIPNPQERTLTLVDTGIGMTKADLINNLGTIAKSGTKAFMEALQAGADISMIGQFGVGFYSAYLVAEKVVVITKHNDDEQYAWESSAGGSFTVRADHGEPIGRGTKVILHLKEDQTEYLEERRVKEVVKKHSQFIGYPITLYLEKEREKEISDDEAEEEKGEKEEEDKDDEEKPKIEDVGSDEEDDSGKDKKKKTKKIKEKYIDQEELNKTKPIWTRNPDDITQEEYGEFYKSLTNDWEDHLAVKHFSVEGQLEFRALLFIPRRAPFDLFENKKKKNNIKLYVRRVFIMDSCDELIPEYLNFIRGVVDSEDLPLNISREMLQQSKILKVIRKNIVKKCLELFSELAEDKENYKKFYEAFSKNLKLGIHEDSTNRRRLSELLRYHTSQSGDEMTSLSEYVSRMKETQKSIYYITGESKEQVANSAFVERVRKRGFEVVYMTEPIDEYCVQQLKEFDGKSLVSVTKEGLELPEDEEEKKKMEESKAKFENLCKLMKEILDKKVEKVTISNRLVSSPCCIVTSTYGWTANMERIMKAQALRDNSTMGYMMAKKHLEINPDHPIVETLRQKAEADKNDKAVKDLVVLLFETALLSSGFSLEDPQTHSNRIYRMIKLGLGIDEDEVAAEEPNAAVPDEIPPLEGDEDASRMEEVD

cGMP hydrolysis (PDE6 activity) in lysates of HEK293T cells cotransfected with PDE6C, Pγ and the AIPL1 mutant (nmol•min^−1• mg^−1): 8.8
B1: AIPL1-K265A (natural protein)
chain: MDVSLLLNVEGVKKTILHGGTGELPSFITGSRVTFHFRTMKCDDERTVIDDSKQVGQPMSIIIGNMFKLEVWETLLTSMRLGEVAEFWCDTIHTGVYPMLSRSLRQVAEGKDPTSWHVHTCGLANMFAYHTLGYEDLDELQKEPQPLVFLIELLQVEAPNEYQRETWNLNNEERMQAVPLLHGEGNRLYKLGRYDQAATKYQEAIVCLRNLQTKEKPWEVEWLKLEKMINTLILNYCQCLLKKEEYYEVLEHTSDILRHHPGIVAAYYMRARAHAEVWNAEEAKADLEKVLELEPSMRKAVLRELRLLESRLADKQEEERQRCRSMLG

cGMP hydrolysis (PDE6 activity) in lysates of HEK293T cells cotransfected with PDE6C, Pγ and the AIPL1 mutant (nmol•min^−1• mg^−1): 3
B2: AIPL1-K265W (natural protein)
chain: B1 chain with A265W
